Reference: paper PMC6291843

Key:
HNP-(R14,24orn) (human) = assay: AUC
[1] = target: human neutrophil peptide-1 (HNP-1) (human); assay: AUC

population of oligomer (HNP-(R14,24orn) (human)) [%]	population of oligomer [1] [%]	Substance
8		HNP-(R14,24orn) (peptide)
	8	human neutrophil peptide-1 (HNP-1)
